The values that follow come from article PMC11300487, “C-phycocyanin reinforces autophagy to block pulmonary fibrogenesis by inhibiting lncIAPF biogenesis” (Archives of Pharmacal Research, 2024).

As usually defined, the Kd is the free concentration of one partner at which half of the binding sites on the other are occupied at equilibrium, for simple one-to-one binding.

The experiment addresses T1, C-phycocyanin (Spirulina platensis, UniProt P72509 1-162; P72508 1-172).
T1 construct: C-phycocyanin alpha subunit, Spirulina platensis; C-phycocyanin beta subunit, Spirulina platensis; the source organism is told in the introduction only; also called C-PC; source: bought: Aladdin, Shanghai
As to the kind of experiment: SPR; equilibrium dissociation constant; who was immobilised and the conditions not given. The conditions noted are these: both partners purified.

B1: activating transcription factor 3 (natural protein, UniProt P18847 1-181, looked up)
chain: MMLQHPGQVSASEVSASAIVPCLSPPGSLVFEDFANLTPFVKEELRFAIQNKHLCHRMSSALESVTVSDRPLGVSITKAEVAPEEDERKKRRRERNKIAAAKCRNKKKEKTECLQKESEKLESVNAELKAQIEELKNEKQHLIYMLNLHRPTCIVRAQNGRTPEDERNLFIQQIKEGTLQS
notes: ATF3 as used in the SPR experiment; the ATF3 protein used there is not described; also called ATF3
As for B1, the dissociation constant Kd turned out to be 683 nM.
